Laboratory results taken from US20190375844A1 (OSE IMMUNOTHERAPEUTICS, published 2019).

T1: recombinant hCD127 (Sino Biologicals, reference 10975-H08H) (human, UniProt P16871 21-239)
T1 construct: Bought recombinant protein; In the Blitz assay the protein is said to be captured by an Fc fragment, and a second catalogue number (11612-H08H) is printed; also called human CD127 recombinant protein; recombinant human CD127
T1 chain: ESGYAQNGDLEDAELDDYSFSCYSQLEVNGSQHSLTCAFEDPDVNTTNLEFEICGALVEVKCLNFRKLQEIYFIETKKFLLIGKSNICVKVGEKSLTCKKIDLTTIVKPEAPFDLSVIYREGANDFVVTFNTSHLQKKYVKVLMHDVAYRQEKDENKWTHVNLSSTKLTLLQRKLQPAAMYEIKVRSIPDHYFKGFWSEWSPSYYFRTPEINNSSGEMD

T2: human CD127 (IL-7Rα) on human PBMC (human, UniProt P16871 21-459)
T2 chain: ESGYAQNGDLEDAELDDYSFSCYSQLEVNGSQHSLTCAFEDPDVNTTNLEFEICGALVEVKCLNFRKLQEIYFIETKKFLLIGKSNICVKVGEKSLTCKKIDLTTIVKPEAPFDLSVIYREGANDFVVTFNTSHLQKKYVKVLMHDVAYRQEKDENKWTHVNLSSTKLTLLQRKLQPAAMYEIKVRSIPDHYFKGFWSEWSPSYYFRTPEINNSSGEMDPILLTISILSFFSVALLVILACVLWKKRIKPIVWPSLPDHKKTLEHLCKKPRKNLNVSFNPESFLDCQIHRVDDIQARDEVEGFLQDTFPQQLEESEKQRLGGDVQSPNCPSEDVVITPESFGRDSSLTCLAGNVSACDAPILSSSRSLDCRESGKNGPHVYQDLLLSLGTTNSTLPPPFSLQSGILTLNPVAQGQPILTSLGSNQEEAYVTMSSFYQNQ

T3: recombinant hCD127 (Sino Biologicals, reference 10975-H08H) (human) (UniProt P16871)
T3 sequence: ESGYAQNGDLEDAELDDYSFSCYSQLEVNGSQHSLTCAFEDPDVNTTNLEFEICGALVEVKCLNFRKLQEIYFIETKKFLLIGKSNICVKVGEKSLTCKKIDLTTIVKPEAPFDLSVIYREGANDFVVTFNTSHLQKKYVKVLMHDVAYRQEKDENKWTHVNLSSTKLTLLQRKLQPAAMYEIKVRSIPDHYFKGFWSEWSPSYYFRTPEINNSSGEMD


Tests used:
[1] = biological target: T1, recombinant hCD127 (Sino Biologicals, …); assay: method not stated
[2] = biological target: T1, recombinant hCD127 (Sino Biologicals, …); assay: Blitz (BLI), hCD127 captured on anti-human IgG Fc (AHC) biosensor, antibody at 20 µg/mL
Description: Recombinant hCD127 (Sino Biologicals, Beijing, China; reference 10975-H08H)/recombinant protein (Sino Biological Cat: 11612-H08H) was immobilized at 50 μg/ml by Fc fragment into anti-human IgG Fc (AHC) biosensor (Forte Bio, 18-5063) for 30 seconds. Then, anti-CD127 antibodies were added at 20 μg/mL (saturating concentration) for an association period of 120 seconds, followed by a dissociation period of anti-CD127 antibody in kinetics buffer for 120 seconds. Data analysis was made with the Blitz pro 1.2 software, which calculated association constant (ka) and dissociation constant (kd) and determined the affinity constant KD […].

[3] = biological target: T2, human CD127 (IL-7Rα) on human PBMC; assay: cell-based or functional assay
[4] = biological target: T1, recombinant hCD127 (Sino Biologicals, …); assay: ELISA, hCD127 immobilized on plastic at 1 µg/ml (given as ED50)
Description: (§1) For activity ELISA assay, recombinant hCD127 (Sino Biologicals, Beijing, China; reference 10975-H08H) was immobilized on plastic at 1 μg/ml and dilutions of anti-CD127 antibody were added to measure binding.

[5] = biological target: T1, recombinant hCD127 (Sino Biologicals, …); assay: ELISA on CD127 after storage of the antibody 7 days at 4° C. (given as ED50)
Description: as §1
(§2) Stability of the antibodies was studies by incubating the antibodies for 7, 14, or 30 days at 4° C., 25° C. and 42° C.

[6] = biological target: T1, recombinant hCD127 (Sino Biologicals, …); assay: ELISA on CD127 after storage of the antibody 30 days at 25° C. (given as ED50)
Description: as §1, §2

[7] = biological target: T1, recombinant hCD127 (Sino Biologicals, …); assay: ELISA on CD127 after storage of the antibody 30 days at 4° C. (given as ED50)
Description: as §1, §2

[8] = biological target: T1, recombinant hCD127 (Sino Biologicals, …); assay: ELISA on CD127 after storage of the antibody 30 days at 42° C. (given as ED50)
Description: as §1, §2

[9] = biological target: T1, recombinant hCD127 (Sino Biologicals, …); assay: ELISA on CD127 after storage of the antibody 14 days at 4° C. (given as ED50)
Description: as §1, §2

[10] = biological target: T1, recombinant hCD127 (Sino Biologicals, …); assay: ELISA on CD127 after storage of the antibody 7 days at 25° C. (given as ED50)
Description: as §1, §2

[11] = biological target: T1, recombinant hCD127 (Sino Biologicals, …); assay: ELISA on CD127 after storage of the antibody 14 days at 25° C. (given as ED50)
Description: as §1, §2

[12] = biological target: T1, recombinant hCD127 (Sino Biologicals, …); assay: ELISA on CD127 after storage of the antibody 7 days at 42° C. (given as ED50)
Description: as §1, §2

[13] = biological target: T1, recombinant hCD127 (Sino Biologicals, …); assay: ELISA on CD127 after storage of the antibody 14 days at 42° C. (given as ED50)
Description: as §1, §2

[14] = biological target: T3, recombinant hCD127 (Sino Biologicals, reference 10975-H08H) (human); assay: method not stated

Kd [2]	koff [2]	kon [2]	IC50-MFI, inhibition of IL7-induced STAT5 phosphorylation in CD3+ human PBMC [3]	EC50 [4]	Binder	also measured
2.71 nM	0.00281 s⁻¹	1.04e+06 M⁻¹ s⁻¹	0.0161 µg/mL	0.0126 µg/mL	N13B2-hVL4 (antibody, V domains shown, also called N13B2-VL4-V48L) VH: QVQLVESGGGLVKPGGSLRLSCAVSGFTLSDYYMAWIRQAPGKGLEWVSTISASGLRTYYPDSVKGRFTISRDNAKNSLYLQMNSLRAEDTAVYYCARPLSAHYGFNYFDYWGQGTLVTVSS VL: DIQMTQSPSSLSASVGDRVTITCRTSEDIYQGLAWYQQKPGKAPKLLLYSANTLHIGVPSRFSGSGSGTDYTLTISSLQPEDFATYFCQQYYDYPLAFGGGTKVEIKR	–
2.53 nM	0.00266 s⁻¹	1.05e+06 M⁻¹ s⁻¹	0.0168 µg/mL	0.0095 µg/mL	N13B2-hVL6 (antibody, V domains shown, also called N13B2-h3VL6; N13B2-VL6-V48L-F87Y) VH: QVQLVESGGGLVKPGGSLRLSCAVSGFTLSDYYMAWIRQAPGKGLEWVSTISASGLRTYYPDSVKGRFTISRDNAKNSLYLQMNSLRAEDTAVYYCARPLSAHYGFNYFDYWGQGTLVTVSS VL: DIQMTQSPSSLSASVGDRVTITCRTSEDIYQGLAWYQQKPGKAPKLLLYSANTLHIGVPSRFSGSGSGTDYTLTISSLQPEDFATYYCQQYYDYPLAFGGGTKVEIKR	EC50 [5]: 0.0553 µg/mL; Kd [1]: 0.2 nM; EC50 [6]: 0.0402 µg/mL; EC50 [7]: 0.047 µg/mL; EC50 [8]: 0.0587 µg/mL; EC50 [9]: 0.0628 µg/mL; EC50 [10]: 0.0478 µg/mL; EC50 [11]: 0.0526 µg/mL; EC50 [12]: 0.0562 µg/mL; EC50 [13]: 0.0406 µg/mL
2.63 nM	0.00266 s⁻¹	1.01e+06 M⁻¹ s⁻¹	0.0273 µg/mL	0.0148 µg/mL	N13B2-hVL5 (antibody, V domains shown, also called N13B2-VL5-F87Y) VH: QVQLVESGGGLVKPGGSLRLSCAVSGFTLSDYYMAWIRQAPGKGLEWVSTISASGLRTYYPDSVKGRFTISRDNAKNSLYLQMNSLRAEDTAVYYCARPLSAHYGFNYFDYWGQGTLVTVSS VL: DIQMTQSPSSLSASVGDRVTITCRTSEDIYQGLAWYQQKPGKAPKLLVYSANTLHIGVPSRFSGSGSGTDYTLTISSLQPEDFATYYCQQYYDYPLAFGGGTKVEIKR	–

The next lines start with the binder.

Binder	Kd [2]	koff [2]	kon [2]	IC50-MFI, inhibition of IL7-induced STAT5 phosphorylation in CD3+ human PBMC [3]	EC50 [4]	also measured
1A11 (antibody, V domains shown) VH: EVQLQQSGPELLKPGASMKISCKASGYSFTGYTMNWVKQSHGKNLEWIGLINPYNGVTSYNQKFKGKATLTVAKSSSTAYMELLSLTSEDSAVYYCARGDGNYWYFDVWGAGTTVTVSS VL: EIVLTQSPAITAASLGQKVTITCSASSSVTYMHWYQQKSGTSPKPWIYEISKLASGVPVRFSGSGSGTSYSLTISSMEAEDAAIYYCQEWNYPYTFGGGTKLEIK	–	–	–	–	–	Kd [1]: 0.6 nM
N13B2-h3 (antibody, V domains shown, also called humanized N13B2 of WO 2015/189302) VH: QVQLVESGGGLVKPGGSLRLSCAVSGFTLSDYYMAWIRQAPGKGLEWVSTISASGLRTYYPDSVKGRFTISRDNAKNSLYLQMNSLRAEDTAVYYCARPLSAHYGFNYFDYWGQGTLVTVSS VL: EIVMTQSPATLSVSPGERATLSCRTSEDIYQGLAWYQQKPGQAPRLLIYSANTLHIGIPARFSGSGSGTEFTLTISSLQSEDFAVYYCQQYYDYPLAFGGGTKVEIKR	2.33 nM	0.00267 s⁻¹	1.15e+06 M⁻¹ s⁻¹	0.0215 µg/mL	0.0168 µg/mL	–
N13B2-hVL3 (antibody, V domains shown) VH: QVQLVESGGGLVKPGGSLRLSCAVSGFTLSDYYMAWIRQAPGKGLEWVSTISASGLRTYYPDSVKGRFTISRDNAKNSLYLQMNSLRAEDTAVYYCARPLSAHYGFNYFDYWGQGTLVTVSS VL: DIQMTQSPSSLSASVGDRVTITCRTSEDIYQGLAWYQQKPGKAPKLLVYSANTLHIGVPSRFSGSGSGTDYTLTISSLQPEDFATYFCQQYYDYPLAFGGGTKVEIKR	–	–	–	0.0272 µg/mL	–	–
MD707-13 (antibody, from another filing, human IgG4, V domains shown) VH: QLKESGPGLVQPSQTLSLTCTVSGLSLPNNNIAWIRQSPGKGLEWMGVIWSNGDTDYNSAIRSRLSISRDSSKSQVFLRMNSLQSEDTAMYFCAREGMTTLDYWGQGVVVTVSS VL: EIVLTQSPTTMAASPGEKVTITCRASSSVSYMHWFQQKSGSSPKPWIYDSSDLASGVPDRFSGSGSGTSYSLTISSMEAEDAATYYCLQRSSYPRTFGGGTKLELKR	–	–	–	–	–	Kd [14]: 0.5 nM
